From US20160208005A1 (Astellas, published 2016)

Assays:
[1] = molecular target: T1, human TSLP receptor-mouse Fc fusion protein (human (receptor part), mouse (Fc part)); experiment: SPR (Biacore 2000), antibody captured on CM5 chip by Human Antibody Capture Kit, human TSLP receptor-mouse Fc as analyte
T1 construct: Expressed in FreeStyle 293 cells and purified on Protein G; also called fusion protein of human TSLP receptor and mouse Fc
T1 chain: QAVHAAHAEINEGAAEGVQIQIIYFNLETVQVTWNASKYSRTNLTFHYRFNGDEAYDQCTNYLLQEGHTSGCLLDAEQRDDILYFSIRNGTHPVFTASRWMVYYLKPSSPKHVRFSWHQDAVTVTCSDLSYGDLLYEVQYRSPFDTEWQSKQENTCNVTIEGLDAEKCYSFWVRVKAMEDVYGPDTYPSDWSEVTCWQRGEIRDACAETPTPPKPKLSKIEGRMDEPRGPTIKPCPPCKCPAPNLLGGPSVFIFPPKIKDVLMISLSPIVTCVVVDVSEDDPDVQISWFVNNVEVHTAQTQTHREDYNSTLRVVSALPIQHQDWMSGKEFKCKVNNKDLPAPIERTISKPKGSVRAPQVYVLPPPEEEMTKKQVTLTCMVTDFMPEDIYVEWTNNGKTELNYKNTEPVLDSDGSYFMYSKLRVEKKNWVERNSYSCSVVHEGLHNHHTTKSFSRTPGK
Protocol: (§1) In the SPR analysis, the analysis was performed using Biacore (registered trademark) 2000 (GE Healthcare Japan Corporation). Respective anti-human TSLP receptor antibodies were immobilized on the surface of a sensor chip CM5 using a Human Antibody Capture Kit and an Amine Coupling Kit (GE Healthcare Japan Corporation). The human TSLP receptor-mouse Fc fusion protein obtained in Example 1 was serially diluted with an HBS-EP solution (GE Healthcare Japan Corporation), and 100 μL of the solution was added to the flow path at a flow rate of 50 μL/min. By this measurement system, binding rate constant (ka), dissociation rate constant (kd), and dissociation constant (KD) of the human TSLP receptor-mouse Fc fusion protein and the anti-human TSLP receptor antibody were calculated using data analysis software (BIA Evaluation) (Table 1).

[2] = molecular target: T1, human TSLP receptor-mouse Fc fusion …; experiment: SPR (Biacore 2000), antibody captured, human TSLP receptor-mouse Fc as analyte; reference TSLPR-012_141
Protocol: as §1

human TSLP receptor [3] = molecular target: T2, human TSLP receptor (human, UniProt Q9HC73 23-371); experiment: cell-based or functional assay
T2 sequence (looked up): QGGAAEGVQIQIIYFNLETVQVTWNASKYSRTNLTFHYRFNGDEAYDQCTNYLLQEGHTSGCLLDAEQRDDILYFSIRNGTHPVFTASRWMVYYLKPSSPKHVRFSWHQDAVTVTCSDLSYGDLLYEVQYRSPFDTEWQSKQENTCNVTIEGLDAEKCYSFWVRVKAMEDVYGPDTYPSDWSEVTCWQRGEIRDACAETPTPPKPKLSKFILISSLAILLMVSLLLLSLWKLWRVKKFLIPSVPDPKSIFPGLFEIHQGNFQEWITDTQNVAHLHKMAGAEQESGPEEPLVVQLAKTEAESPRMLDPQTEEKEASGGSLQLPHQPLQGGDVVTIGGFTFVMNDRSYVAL

human TSLP receptor [4] = molecular target: T2, human TSLP receptor; experiment: cell-based or functional assay; remark: listed apart in the source

Kd [1]: 4.1 nM | koff [1]: 0.000125 s⁻¹ | fold binding activity compared to TSLPR-012_141 [2]: ~3 fold | IC50 (ng/mL); TSLP-induced MDC proteins production inhibition using human PBMC (5 ng/mL human TSLP mutant-Flag protein) (human TSLP receptor [3]): 0.12 ng/mL | fold inhibition activity against TSLP-induced MDC proteins production compared to TSLPR-012_141 (human TSLP receptor [4]): ~9 fold | fold inhibition activity against human TSLP-induced TARC mRNA expression compared to TSLPR-012_141 (human TSLP receptor [4]): ~12 fold
B1: fully human T7-27 (antibody, human IgG1, kappa, V domains shown)
VH: EVQLLESGGGLVQPGGSLRLSCAASGFTFRSSAMHWVRQAPGKGLKWVSSVSGSGAGTYYADSVKGRFTISRDNPKNTLYLQMNSLRAEDTAVYYCVKEGGSRGFDYWGQGTLVTVSS
VL: DIQMTQSPSSLSASVGDRVTITCRASQDISNYLAWFQQKPGKAPKSLIYTASSLQSGVPSKFSGSGSGTDFTLTISSLQPEDFATYYCQQYNLYPPTFGQGTKVEIKR
modifications: deletion of lysine of the heavy chain C terminal occurred in a large part of the purified antibody
notes: Human IgG1/kappa; Expressed in FreeStyle 293 or CHO-K1SV cells; also called fully human antibody of T7-27
